Source: publication PMC10031476, “Interaction of the bacterial division regulator MinE with lipid bicelles studied by NMR spectroscopy” (The Journal of Biological Chemistry, 2023)

Biological target: the molecule itself
Experiment: NMR (3D 15N-separated NOE spectrum, NOE-TROSY); 2H/15N-labeled ngMinE bound to q = 0.5 DMPC:DHPC bicelles; 150 ms mixing time; 35 °C; 25 mM potassium phosphate pH 6.5, 1 mM EDTA, 1 mM benzamidine hydrochloride

B1: Full-length Neisseria gonorrhoeae MinE bearing the double mutation E46A/R10Q (natural protein)
chain: MSLIELLFGQKQKTATVARDRLQIIIAQERAQEGQTPDYLPTLRKALMEVLSKYVNVSLDNIRISQEKQDGMDVLELNITLPEQKKV
modifications: uniform 2H/15N or 2H/15N/13C isotope labeling
notes: Dimer with C2 symmetry (about 19 kDa); also called ngMinE; full-length ngMinE; not shown: His6, C-terminal, kept
B1: binds.
